Where “and” joins values, the source holds several entries; their conditions need not be identical. Identical values can stand only once.
Columns and labels:
[1] = biological target: pre-phosphorylated His10-PD-1 ICD (aa 194-288) PD-1^FY (human) (UniProt Q15116); assay: SPR; OpenSPR (Nicoya); pre-phosphorylated His10-tagged PD-1 ICD or BTLA ICD tyrosine mutant immobilised on a Ni sensor chip (about 1500 RU); SH2 injected at 20-1000 nM, 20 ul/min; 20 mM HEPES, 150 mM NaCl, 5 mM imidazole, 0.05% Tween-20, 10% glycerol, pH 7.5; equilibrium fit ('Evaluate EC50', TraceDrawer); three independent repeats on different chips
[2] = biological target: pre-phosphorylated His10-BTLA ICD (aa 190-289) triple-tyrosine-mutant FFFY (human) (UniProt Q7Z6A9); assay: as above
[3] = biological target: pre-phosphorylated His10-BTLA ICD (aa 190-289) triple-tyrosine-mutant FFYF (human) (UniProt Q7Z6A9); assay: as above
[4] = biological target: His10-BTLA^ICD BTLA^FFYF, pre-phosphorylated (human) (UniProt Q7Z6A9); assay: SPR; OpenSPR (Nicoya); pre-phosphorylated His10-tagged PD-1 or BTLA ICD immobilised on a Ni sensor chip (about 1500 RU); SH2 injected at 20-1000 nM, 20 μl/min; 20 mM HEPES, 150 mM NaCl, 5 mM imidazole, 0.05% Tween-20, 10% glycerol, pH 7.5; equilibrium analysis (Evaluate EC50, TraceDrawer)
[5] = biological target: pre-phosphorylated His10-PD-1 ICD (aa 194-288) PD-1^YF (human) (UniProt Q15116); assay: SPR; OpenSPR (Nicoya); pre-phosphorylated His10-tagged PD-1 ICD or BTLA ICD tyrosine mutant immobilised on a Ni sensor chip (about 1500 RU); SH2 injected at 20-1000 nM, 20 ul/min; 20 mM HEPES, 150 mM NaCl, 5 mM imidazole, 0.05% Tween-20, 10% glycerol, pH 7.5; equilibrium fit ('Evaluate EC50', TraceDrawer); three independent repeats on different chips
[6] = biological target: His10-PD-1^ICD PD-1^YF, pre-phosphorylated (human) (UniProt Q15116); assay: SPR; OpenSPR (Nicoya); pre-phosphorylated His10-tagged PD-1 or BTLA ICD immobilised on a Ni sensor chip (about 1500 RU); SH2 injected at 20-1000 nM, 20 μl/min; 20 mM HEPES, 150 mM NaCl, 5 mM imidazole, 0.05% Tween-20, 10% glycerol, pH 7.5; equilibrium analysis (Evaluate EC50, TraceDrawer)
[7] = biological target: His10-PD-1^ICD PD-1^FY, pre-phosphorylated (human) (UniProt Q15116); assay: as above

| Kd [1] | Kd [3] | Kd [5] | Substance | further results |
| --- | --- | --- | --- | --- |
| 1100 nM and 660 nM and 3200 nM | 2000 nM and 1600 nM |  | SNAP-SHP1-cSH2 (from UniProt P29350 1-595) (domain or fragment) | Kd [2]: 760 nM and 1200 nM and 610 nM |
|  |  |  | SNAP-SHP1-nSH2 (domain or fragment) | Kd [4]: 64 nM |
| 72 nM and 110 nM and 88.3 nM | 50 nM and 73 nM and 68 nM | 200 nM and 210 nM and 400 nM | SNAP-SHP1-nSH2 (from UniProt P29350 1-595) (domain or fragment) |  |
|  |  |  | SNAP-SHP2-cSH2 (domain or fragment) | Kd [6]: 1400 nM; Kd [7]: 100 nM |
| 83 nM and 77 nM and 130 nM |  | 1900 nM and 770 nM and 1400 nM | SNAP-SHP2-cSH2 (from UniProt Q06124 1-593) (domain or fragment) |  |
|  |  |  | SNAP-SHP2-nSH2 (domain or fragment) | Kd [6]: 380 nM; Kd [7]: 140 nM |
| 120 nM and 110 nM and 200 nM | 430 nM and 270 nM | 270 nM and 420 nM and 460 nM | SNAP-SHP2-nSH2 (from UniProt Q06124 1-593) (domain or fragment) |  |

Reference: paper PMC8631942
